Changes are numbered by the printed parent chain. Each block holds one binder with its values, some of them ahead of it.
Experiments:
[1] = target: T1, StrepII-tagged Mesothelin (human mesothelin isoform 2, NP_037536, with C-terminal strepII-tag) (human, UniProt Q13421-1 296-606, limits assumed); assay: ELISA of 293T supernatant on coated Mesothelin, divided by the IgG titer from a sandwich ELISA
T1 construct: also called Mesothelin-strep; soluble antigen
Method: (§1) Antigen-binding analysis by ELISA was performed by coating of Nunc-Immuno MaxiSorp 96-well plates (Thermo Scientific, Waltham, USA) with antigen diluted in coating buffer (100 mM bicarbonate/carbonate buffer) over night at 4° C. For sandwich ELISA, plates were coated with 2 μg/ml AffiniPure F(ab′)2 fragment donkey anti-human IgG (Jackson Immunoresearch, West Grove, USA) diluted in coating buffer over night at 4° C. After coating, plates were washed twice with PBS/0.05% Tween-20 (PBS-T), blocked with PBS-T containing 3% bovine serum albumin (BSA) (Carl Roth, Karlsruhe, Germany) for 1 hour at 37° C. and washed again 5 times with PBS/T. L11 clone supernatants were pre-diluted 3-fold, while supernatants from 293T cells were pre-diluted 50-fold. Parental mAbs diluted to 0.5 μg/ml were used to generate standard curves. 3.5-fold serial dilutions of samples were added and plates were incubated for 1 hour at 37° C. After 5 washes with PBS/T, HRPO-conjugated F(ab)2 anti-human FC-gamma (Jackson Immunoresearch, West Grove, USA) was added at 10′000-fold dilution in PBS/T containing 1% BSA, and plates were incubated for 1 hour at 37° C. Finally, plates were washed 5 times with PBS/T and 50 μl of Sigmafast OPD Peroxidase substrate (Sigma-Aldrich, St. Louis, USA) were added. Reactions were stopped by adding 50 μl of 2M H₂SO₄. Absorption was measured at 490 nm. OD50 values of standards with known concentrations and samples determined by 4-point curve fitting models were used to calculate EC50.
(§2) FIG. 10B Deconvolution and validation of recovered sequences. All possible combinations of VH/VL pairs per clone along with the parental pair as a control were transiently transfected into 293T cells. Cell clones and supernatants were analysed for antigen-binding and IgG titer by ELISA as described in FIG. 4D. Ratios of antigen-binding/IgG titers were determined to obtain antigen binding values normalized to IgG content in supernatants (Meso-binding/IgG). Normalized binding is also shown in relation to parental mAb (binding % of parental).

[2] = target: T1, StrepII-tagged Mesothelin (human …); assay: ELISA of 293T supernatant on coated Mesothelin, normalized to IgG titer and given relative to parental mAb MN
Method: as §1, §2

[3] = target: T1, StrepII-tagged Mesothelin (human …); assay: SPR (Biacore T200), mAb from 293T supernatant captured by anti-human Fc-gamma IgG, Mesothelin-strep 10 to 1.25 nM as analyte, 25 °C, 1:1 model
Method: (§3) Table 1. Affinities of parental mouse mAb MN and humanized versions thereof. To evaluate the binding strength (affinity) of the generated humanized monoclonal antibodies (mAbs), and to compare affinites with parental mAbs, surface plasmon resonance (SPR) measurements were conducted, a biophysical method to accurately determine affinity. SPR was performed using a Biacore T200 instrument (GE Healthcare, Buckinghamshire, UK) and data was evaluated using Biacore Evaluation T200 V2.0 software. To capture mAbs, goat a-human Fc-gamma-specific IgG (Jackson ImmunoResearch, #109-005-098) was covalently immobilized on a CMS chip (GE Healthcare, # BR-1005-30).
FIG. 10C Isoaffinity plot showing association (kₐ) and dissociation constants (kd) as determined by surface plasmon resonance (SPR). The same supernatants as described in (B) were used for the analysis. Diagonal lines represent equal affinities.

[4] = target: T1, StrepII-tagged Mesothelin (human …); assay: SPR (Biacore T200), mAb captured by anti-human Fc-gamma IgG (ligand level 217.8 RU), Mesothelin-strep 10 to 1.25 nM as analyte, 25 °C, 1:1 model; Chi2 0.151 RU2
Method: as §3
(§4) Mesothelin-strep was diluted in running buffer using 2-fold serial dilutions ranging from 10 nM to 1.25 nM. Association was measured at a flow of 30 μl/min for 120 s, and dissociation was followed for 1000 s. All measurements were performed at 25° C. All curves were fitted using a 1:1 binding model with RI=0. Regeneration was done for 90 s using 100 mM H3PO4 at a flow of 30 μl/min.

[5] = target: T1, StrepII-tagged Mesothelin (human …); assay: SPR (Biacore T200), mAb captured by anti-human Fc-gamma IgG (ligand level 143.6 RU), Mesothelin-strep 10 to 1.25 nM as analyte, 25 °C, 1:1 model; Chi2 0.100 RU2
Method: as §3, §4

[6] = target: T1, StrepII-tagged Mesothelin (human …); assay: SPR, Biacore T200, mAb captured by anti-human Fc, Mesothelin-strep as analyte
[7] = target: T1, StrepII-tagged Mesothelin (human …); assay: SPR (Biacore T200), mAb captured by anti-human Fc-gamma IgG (ligand level 106.5 RU), Mesothelin-strep 10 to 1.25 nM as analyte, 25 °C, 1:1 model; Chi2 0.052 RU2
Method: as §3, §4

[8] = target: T1, StrepII-tagged Mesothelin (human …); assay: SPR (Biacore T200), mAb captured by anti-human Fc-gamma IgG (ligand level 90.0 RU), Mesothelin-strep 10 to 1.25 nM as analyte, 25 °C, 1:1 model; Chi2 0.075 RU2
Method: as §3, §4

T1 sequence (Q13421 other isoform, or with tags, fused parts or gaps limits assumed): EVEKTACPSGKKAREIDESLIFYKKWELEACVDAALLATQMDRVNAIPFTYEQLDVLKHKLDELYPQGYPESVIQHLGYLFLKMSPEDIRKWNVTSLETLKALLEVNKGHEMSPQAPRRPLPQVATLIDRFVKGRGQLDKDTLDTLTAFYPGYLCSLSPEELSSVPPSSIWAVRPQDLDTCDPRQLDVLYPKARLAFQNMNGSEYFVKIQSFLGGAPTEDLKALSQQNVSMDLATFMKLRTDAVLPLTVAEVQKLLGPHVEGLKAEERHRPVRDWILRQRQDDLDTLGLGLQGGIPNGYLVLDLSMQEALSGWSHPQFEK

Meso-binding/IgG [1]: 0.79
binding (% of parental) [2]: 84.9 % of parental
Kd [3]: 0.176 nM
koff [3]: 0.000218 s⁻¹
kon [3]: 1.24e+06 M⁻¹ s⁻¹
Kd [4]: 0.176 nM
B1: huMN5-2 (antibody, V domains shown)
VH: QVQLQQSGAELVKPGASLKLSCKASGYTFTSYWMHWVRQAPGQGLEWIGAIHPNSDNTIYYQKFKSRFTITVDKSTSTAYMQLSSLTSEDTAVYYCAIIITPVVPKFDYWGQGTTVTVSS
VL: DIVMTQSSSFMSASVGDRVSITCKASHDVGTSLAWYQQKPGQSPKLLIYWASTRQTGVPDRFSGSGSGTDFTLTISSVQSEDVATYFCQQYSSYPLTFGQGTKLEIK
notes: No sheet says in words that huMN5a is huMN5-2

Meso-binding/IgG [1]: 0.77
binding (% of parental) [2]: 82.4 % of parental
Kd [3]: 0.114 nM
koff [3]: 0.000115 s⁻¹
kon [3]: 1.01e+06 M⁻¹ s⁻¹
Kd [5]: 0.114 nM
B2: huMN5-3 (antibody, V domains shown)
VH: B1 VH
VL: DIVMTQSPDSLAVSLGERATITCKSSHDVGTSLAWYQQKPGQPPKLLIYWASTRESGVPDRFSGSGSGTDFTLTISSLQAEDVAVYYCQQYSSYPLTFGQGTKLEIK
notes: No sheet says in words that huMN5b is huMN5-3

Kd [6]: 0.051 nM
Meso-binding/IgG [1]: 0.94
binding (% of parental) [2]: 100 % of parental
koff [3]: 6.81e-05 s⁻¹
kon [3]: 1.31e+06 M⁻¹ s⁻¹
Kd [7]: 0.05 nM
B3: parental anti-Mesothelin mouse mAb MN, produced as chimeric full-length IgG1 antibody with human constant regions (antibody, V domains shown)
VH: QVQLQQPGAELVKPGASMKLSCKASGYTFTSYWMHWVKQRPGQGLEWIGMIHPNSDNTIYYEKFKSKATLTVDKSSSTAYMQLSSLTSEDSAVYYCAIIITPVVPKFDYWGQGTTLTVSS
VL: DIVMTQSHQFMSTSVGDRVSVTCKASHDVGTSVAWYQQKPGQSPKLLIYWASTRHTGVPDRFTGSGSGTDFTLTISNVQSEDLADYFCQQYSSYPLTFGAGTKLELK
notes: also called VH-MN (parental mouse); parental chimeric antibody

Meso-binding/IgG [1]: 1.04
binding (% of parental) [2]: 111 % of parental
Kd [3]: 0.193 nM
koff [3]: 0.000274 s⁻¹
kon [3]: 1.42e+06 M⁻¹ s⁻¹
Kd [8]: 0.193 nM
B4: huMN3-1 (antibody, V domains shown)
VH: B1 VH with L18M, F68V, I70L, T76I
VL: DIQMTQSPSFLSASVGDRVTITCRASHDVGTSLAWYQQKPGQAPKLLIYWASTLQTGVPSRFSGSGSGTEFTLTISSLQPEDFATYYCQQYSSYPLTFGPGTTVDMK

— patent publication US20190112385A1 (NBE THERAPEUTICS, published 2019)
